# Measurements taken from patent publication US20140206846A1 (published 2014).
# Tests used:
# human IL6 = molecular target: T1, human IL6 (human, UniProt P05231 30-212); test: Biacore SPR, Fab captured by anti-light chain antibody, IL6 as analyte
# T1 construct: Bought recombinant protein
# Procedure: Antibody libraries were selected against human VEGF (Peprotech catalogue number 100-20) and human IL6 (Peprotech catalogue number 200-06). Of the isolated parental antibody clones, IL6P and VEGFP were combined into the bi-specific antibody clone VH6L. […] To assess the affinities of parental and bi-specific antibodies, Biacore™ analysis was performed in order to analyze the binding behaviour of IL6P, VH6L and VEGFP. For this, an anti-light chain capture antibody was immobilized onto a CM5 chip using amine-coupling, resulting in 12000 RU. Fab fragments were captured to a level of 400-500 RU and a concentration series of IL6 and VEGF, ranging from 0 to 450 nM, was passed over the chip. As depicted in FIG. 7, clone IL6P binds to IL6, but not to VEGF, clone VEGFP binds to VEGF, but not to IL6, and the combined clone VH6L binds to both IL6 and VEGF.
# HEL = molecular target: T2, HEL (UniProt P00698 19-147, biotinylated); test: ELISA, biotinylated target (20 nM) on streptavidin plates, Fab in culture supernatant
# T2 construct: Control target of the ELISA
# T2 sequence (P00698 19-147): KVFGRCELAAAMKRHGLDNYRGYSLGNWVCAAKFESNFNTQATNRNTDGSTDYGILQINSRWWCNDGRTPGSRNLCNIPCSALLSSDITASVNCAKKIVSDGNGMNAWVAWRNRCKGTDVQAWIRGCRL
# Procedure: To test the specificity of antibodies selected from Lib1 and Lib2 libraries against one target and the specificity of bi-specific antibodies designed to bind both targets, Enzyme-linked immunosorbent assays (ELISAs) were performed using standard methods. Briefly, Nunc Maxisorp plates were prepared by coating with Streptavidin dissolved in 1×PBS, binding 20 nM of biotinylated targets (GST, MBP, HEL or VEGF) in PBS-T (0.3% Tween-20 dissolved in 1×PBS) and blocking with 5% skimmed milk powder in PBS-T. Thereafter, 50 μl of E. coli TG1 culture supernatant expressing antibody clones as soluble Fab fragments in microtiter plates were added, followed by detection of bound Fab fragments using goat anti-human kappa light chain polyclonal antibody (Sigma) or mouse anti-Strep tag antibody (IBA) specific for a Strep-Il tag fused to the C-terminus of the heavy chain in the soluble Fab expression construct. Secondary antibodies were detected using HRP-labeled tertiary antibodies, ELISAs were developed using TMB substrate (KPL), and signal was quantified using a Victor plate reader from PerkinElmer set to 450 nm. […] None of the clones bound the control targets HEL or VEGF (FIG. 5). Experiments were performed in duplicate using two independent colonies for each Fab.
Binder,Kd (human IL6) [nM],binding result (HEL)
"IL6P (Fab, V domains shown) VH: EVQLVESGGGLVQPGGSLRLSCAASGFTFSSYAMSWIRQAPGKGLEWIGQISGSGGSTVYNYNVLGRFTISRDNSKNTLYLQMNSLRAEDTAVYYCARDSGYFDIWGQGTLVTVSS VL: NIQKTQSPSSLSASVGDRVTITCRALWHISSYLAWYQQKPGKAPKLLIYAASSLYSGVPSRFSGSGSGTDFTLTISSLQPEDFATYYCQQYSGLPYTFGQGTKVEIKR",38,–
"Dummy 1 Fab (Fab, V domains shown, Tested as soluble Fab in E. coli TG1 culture supernatant; Strep-II tag fused to the C-terminus of the heavy chain) VH: EVQLVESGGGLVQPGGSLRLSCAASGFTFSSYAMSWIRQAPGKGLEWIGQISGSGGSTYYNDNVLGRFTISRDNSKNTLYLQMNSLRAEDTAVYYCARDSGYFDIWGQGTLVTVSS VL: DTQMTQSPSSLSASVGDRVTITCRASQSISSYLAWYQQKPGKAPKLLIYAASSLYSGVPSRFSGSGSGTDFTLTISSLQPEDFATYYCQQYSSLPYTFGQGTKVEIK",–,no binding
"VH6L (bispecific antibody, V domains shown, Combination of IL6P and VEGFP; two paratopes in one VH-VL pair; tested as Fab fragment; also called bi-specific antibody clone VH6L; combined clone VH6L) VH: YYQLVESGGGLVQPGGSLRLSCAADGFLFSGYAMSWIRQAPGKGLEWIGQISGSGGSTVYNYNVLGRFTISRDNSKNTLYLQMNSLRAEDTAVYYCARDTGYFDHWGQGTLVTVSS VL: NIQKTQSPSSLSASVGDRVTITCRALWHISSYLAWYQQKPGKAPKLLIYAASHLHYGVPSRFSGSGSGTDFTLTISSLQPEDFATYYCQQYSGLPYTFGQGTKVEIK",40,–
